Usually Kd stands for the constant that tells how readily two partners part at equilibrium.

Bounds are passed on as bounds.

The source of these data is publication PMC2926940 (Nature structural & molecular biology, 2010).

The target of assay [1] is c-Jun phosphopeptide (Homo sapiens) (UniProt P05412). The following applies: cited from earlier work.
For assay [2], the target named is Abl SH2 domain, His-tagged (immobilised for SPR) (human) (UniProt P00519). As to the kind of experiment: SPR.
In assay [3] the target is Abl SH2 domain spotted on the SH2 microarray (human). In words: peptide or protein array.
Assay [4] concerns the target Abl2 (Arg) SH2 domain spotted on the SH2 microarray (UniProt P42684). As to the kind of experiment: peptide or protein array.
The target of assay [5] is Blk SH2 domain spotted on the SH2 microarray (UniProt P51451). In words: peptide or protein array.
Assay [6] concerns the target Grb7 SH2 spotted on the SH2 microarray (UniProt Q14451). In words: peptide or protein array.
The target in assay [7] is tandem SH2 domains of Syk spotted on the SH2 microarray. As to the kind of experiment: peptide or protein array.
In assay [8] the target is T1, Abl SH2 domain, His-tagged (immobilised for SPR) (human, UniProt P00519-2).
T1 sequence: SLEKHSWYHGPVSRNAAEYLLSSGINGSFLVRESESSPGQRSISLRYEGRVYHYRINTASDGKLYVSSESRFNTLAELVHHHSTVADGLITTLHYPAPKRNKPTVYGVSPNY
In words: SPR. (In SPR one partner is held on a chip, and binding of the other changes the refractive index at the surface.)

Sequence of Abl2 (Arg) SH2 domain spotted on the SH2 microarray (P42684 173-263): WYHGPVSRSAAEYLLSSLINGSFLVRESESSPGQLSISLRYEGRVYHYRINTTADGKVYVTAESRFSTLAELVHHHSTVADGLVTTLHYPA
Sequence of Blk SH2 domain spotted on the SH2 microarray (P51451 124-220): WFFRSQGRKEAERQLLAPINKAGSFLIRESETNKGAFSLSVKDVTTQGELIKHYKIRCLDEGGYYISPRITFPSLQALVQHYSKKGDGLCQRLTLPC
Sequence of c-Jun phosphopeptide (Homo sapiens) (P05412 whole entry, the tested form may be a part): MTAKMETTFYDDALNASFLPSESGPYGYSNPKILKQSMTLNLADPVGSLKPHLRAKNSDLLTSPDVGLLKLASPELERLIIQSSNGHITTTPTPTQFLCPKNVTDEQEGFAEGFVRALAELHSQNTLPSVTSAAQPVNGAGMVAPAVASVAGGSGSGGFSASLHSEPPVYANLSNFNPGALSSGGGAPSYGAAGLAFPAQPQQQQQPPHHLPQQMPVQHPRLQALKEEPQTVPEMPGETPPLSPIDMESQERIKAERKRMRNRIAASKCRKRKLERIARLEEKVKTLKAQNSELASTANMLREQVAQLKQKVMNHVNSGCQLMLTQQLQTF
Sequence of Grb7 SH2 spotted on the SH2 microarray (Q14451 431-527): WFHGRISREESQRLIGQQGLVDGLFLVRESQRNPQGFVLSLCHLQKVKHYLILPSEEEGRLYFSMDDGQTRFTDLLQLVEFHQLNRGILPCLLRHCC

For the molecule Abl SH2 (from UniProt P00519), the Kd in assay [1] was 7 µM.
In the case of HA4 E52A (designed binder), the ΔΔG of binding against HA4 in assay [2] was 2.4 kcal/mol.
HA4 R38A (designed binder): in assay [2], the ΔΔG of binding against HA4 stood at 2.2 kcal/mol.
The molecule HA4 Y35A (designed binder) registered a ΔΔG of binding against HA4 in assay [2] of 0.8 kcal/mol.
The molecule monobody HA4 (designed binder) showed a Kd in assay [2] of 7 nM.
As for “monobody HA4 labelled with DyLight 800 (designed binder)”, the Kd in assay [3] was determined as 22 nM; in assay [4], 18 nM; in assay [5] it was 109 nM; in assay [6] it was 169 nM; in assay [7] it was 28 nM.

B1: HA4 Y36A (designed binder)
chain: GSSVSSVPTKLEVVAATPTSLLISWDAPMSSSSVYAYRITYGETGGNSPVQEFTVPYSSSTATISGLSPGVDYTITVYAWGEDSAGYMFMYSPISINYRTC
As for B1, the “ΔΔG of binding against HA4” value in assay [8] was at least 3.8 kcal/mol.

B2: HA4_(Y87A) (designed binder)
chain: GSSVSSVPTKLEVVAATPTSLLISWDAPMSSSSVYYYRITYGETGGNSPVQEFTVPYSSSTATISGLSPGVDYTITVYAWGEDSAGAMFMYSPISINYRTC
Consider B2, for which, in assay [8], the “ΔΔG of binding against HA4” value is at least 3.8 kcal/mol.

B3: HA4 M88A (designed binder)
chain: GSSVSSVPTKLEVVAATPTSLLISWDAPMSSSSVYYYRITYGETGGNSPVQEFTVPYSSSTATISGLSPGVDYTITVYAWGEDSAGYAFMYSPISINYRTC
Take B3: the “ΔΔG of binding against HA4” value in assay [8] is at least 3.8 kcal/mol.

B4: HA4 W80A (designed binder)
chain: GSSVSSVPTKLEVVAATPTSLLISWDAPMSSSSVYYYRITYGETGGNSPVQEFTVPYSSSTATISGLSPGVDYTITVYAAGEDSAGYMFMYSPISINYRTC
Regarding B4, the “ΔΔG of binding against HA4” value in assay [8] is at least 3.8 kcal/mol.
